Test results published in article PMC5477135, “Imaging of αvβ3 integrin expression in experimental myocardial ischemia with [^68Ga]NODAGA-RGD positron emission tomography” (Journal of Translational Medicine, 2017).
Marks after values point to notes of the source that are not given here.

Tests used:
αvβ3 integrin [1] = conditions: pig, in vivo
Source text: Subsequently, the pigs were euthanized and their hearts were excised. Based on 1% 2,3,5-triphenyltetrazolium chloride (TTC) (Sigma-Aldrich, Saint Louis, MO, USA) staining, tissue samples were obtained from the injured ischemic (TTC negative) and adjacent viable ischemic (TTC positive) myocardium as well as from the remote non-ischemic myocardium. Autoradiography of myocardial tissue sections was used to compare [^68Ga]NODAGA-RGD uptake with the histology, αvβ3 integrin expression and CD31 on endothelial cells. Immediately after the PET scanning, the animals were sacrificed by an i.v. injection of potassium chloride (B. Braun Medical Oy, Helsinki, Finland). The heart was excised, the LV was cut into 4 short axis slices from base to apex that were incubated for 15 min in 1% TTC (Sigma-Aldrich, Saint Louis, MO, USA), diluted in phosphate-buffered saline (pH 7.4) at 37 °C, photographed from both sides and the presence of non-viable ischemic area was confirmed visually. Based on the TTC staining, transmural samples containing non-viable and immediately adjacent viable myocardium were collected from the LV wall corresponding to the ischemic area in PET images. Another sample was obtained from the posterior LV wall representative of the remote region (segment number 11). Myocardial samples and a blood sample were weighed and measured for radioactivity using the gamma counter (Wizard). The radioactivity concentration was expressed as standardized uptake values (SUV = ([tissue radioactivity/tissue weight]/[total given radioactivity/animal body weight])).

αvβ3 integrin [2] = experiment: in vivo; conditions: pig
Method: (§1) Coronary stenosis was created in 11 domestic, 3-month old pigs weighing 30–35 kg by implanting a bottleneck stent in the proximal LAD coronary artery as described previously. In addition, a sham group of 4 pigs underwent a catheterization procedure without the stent implantation. Myocardial [^68Ga]NODAGA-RGD uptake was evaluated by PET 13 ± 4 days after the stent implantation. […] Three pigs without a perfusion defect during adenosine stress were considered as procedural failures and excluded from further in vivo analyses.
(§2) Then a [^68Ga]NODAGA-RGD PET was performed with an ECAT EXACT HR+ scanner (Siemens-CTI, Knoxville, TN, USA). The studies were started with a 10 min transmission scan. The dynamic scanning started at the same time as 310 ± 43 MBq (230–400 MBq) of [^68Ga]NODAGA-RGD was injected via the ear vein. The acquisition time frames were as follows: 18 × 10 s, 4 × 30 s, 2 × 120 s, 1 × 180 s, 4 × 300 s, 3 × 600 s (total duration 62 min). The acquired [^68Ga]NODAGA-RGD PET data were corrected for scatter, random counts, and dead time and iteratively reconstructed with ordered-subsets expectation maximization (OSEM) algorithm using 2 iterations and 32 subsets. The whole transaxial field of view (70 cm) was reconstructed in 256 × 256 matrix yielding to pixel size of 2.57 mm × 2.57 mm. The device produces 63 axial planes with a slice thickness of 2.43 mm.
(§3) For quantification of [^68Ga]NODAGA-RGD uptake in the myocardium, the [^15O]water images and the [^68Ga]NODAGA-RGD images were co-registered using the high blood pool activity of the [^68Ga]NODAGA-RGD as a landmark (Fig. 1). The myocardial contours from the [^15O]water images were copied to the co-registered [^68Ga]NODAGA-RGD data. Then, the polar maps of [^68Ga]NODAGA-RGD uptake expressed as standardized uptake value (SUV) (time frame 52–62 min after injection) in the LV myocardium were generated using matching image orientation and sampling points. The region of interest (ROI) defining the ischemic area was copied from the [^15O]water polar maps to measure [^68Ga]NODAGA-RGD uptake in this region. The septum was excluded from the measurements to prevent spillover from the blood in the right ventricle. The mean and maximum SUVs were determined from the ischemic area. In order to measure the SUVs, ROI was modified to include only the mid-myocardium in order to avoid spill-over from blood. The maximum SUV within the ROI was determined from area showing visually the highest uptake. One segment in the posterolateral wall (segment 11) that was always outside the ischemic area was used to measure [^68Ga]NODAGA-RGD uptake in the remote myocardium. The ischemic-to-remote SUV ratio was calculated in the ischemic area and remote myocardium.

in vivo [3] = conditions: Finnish landrace, pig, iv, total radioactivity
Method: as §1, §2, §3

in vivo [4] = conditions: pig, iv, total radioactivity
Method: During the [^68Ga]NODAGA-RGD PET imaging, blood samples (2 ml) were obtained into heparinized tubes from the femoral artery 2, 5, 10, 20, 30, 40, 50 and 60 min after the injection of [^68Ga]NODAGA-RGD for the measurements of total radioactivity, radiometabolites (proportion of authentic tracer), and plasma-to-blood ratio. The radioactivities of whole blood and blood plasma were measured using a gamma counter (1480 Wizard 3″; PerkinElmer, Turku, Finland).

in vitro = in vitro ADME; conditions: plasma
Method: To evaluate species-dependent differences, the [^68Ga]NODAGA-RGD binding to human, pig and rat plasma proteins was measured using in vitro assay as described previously.

αvβ3 integrin [5] = conditions: pig, in vivo; remark: listed apart in the source
Source text: Subsequently, the pigs were euthanized and their hearts were excised. Based on 1% 2,3,5-triphenyltetrazolium chloride (TTC) (Sigma-Aldrich, Saint Louis, MO, USA) staining, tissue samples were obtained from the injured ischemic (TTC negative) and adjacent viable ischemic (TTC positive) myocardium as well as from the remote non-ischemic myocardium. Autoradiography of myocardial tissue sections was used to compare [^68Ga]NODAGA-RGD uptake with the histology, αvβ3 integrin expression and CD31 on endothelial cells. Tissue samples were frozen in isopentane mixed with dry ice and cut into serial 40 and 7 µm sections for autoradiography and immunohistochemical stainings respectively, using a cryomicrotome. Tissue sections of 40 μm thickness were immediately exposed on a phosphor imaging plate (BAS-TR2025, Fuji Photo Film Co. Ltd., Tokyo, Japan) for 2 h. The distribution of radioactivity on the plate was visualized and quantified using a Fluorescent Image Analyzer (Fujifilm FLA-5100, Fuji Photo Film Co. Ltd., Tokyo, Japan). Autoradiographs and hematoxylin & eosin (HE) staining images of the same sections were co-registered and [^68Ga]NODAGA-RGD accumulation was measured by drawing ROIs covering remote myocardium, and either viable or injured ischemic myocardium using TINA™ 2.10f software (Raytest Isotopenmessgeräte GmbH., Straubenhardt, Germany). Results were expressed as photostimulated luminescence per square millimetre (PSL/mm^2) and normalized for the injected radioactivity dose, animal weight and the radioactivity decay. Serial tissue sections of 7 μm were stained with H&E for general histology, Masson’s trichrome for differentiation myocytes and collagenous scar, and immunohistochemistry with antibodies against of CD31 on endothelial cells (dilution 1:250, Thermo Scientific, Cheshire, UK), αvβ3 integrin (dilution 1:200, Millipore, Temecula, CA, USA) and α-smooth muscle actin on myofibroblasts (dilution 1:30,000, Sigma-Aldrich, St. Louis, MO, USA). […]

## N=C(N)NCCC[C@@H]1NC(=O)[C@H](CCCCNC(=O)CCC(C(=O)O)N2CCN(CC(=O)O)CCN(CC(=O)O)CC2)NC(=O)[C@@H](Cc2ccc(O)cc2)NC(=O)[C@H](CC(=O)O)NC(=O)CNC1=O (stereo partly shown) [[^68Ga]NODAGA-RGD, metal not drawn]
αvβ3 integrin [1]
  radioactivity in tissue sample from injured myocardium (SUV): 0.79 ± 0.21 SUV
  radioactivity in tissue sample from remote myocardium (SUV): 0.49 ± 0.21 SUV
  radioactivity in tissue sample from viable ischemic myocardium (SUV): 0.49 ± 0.17 SUV
αvβ3 integrin [2]
  average myocardial uptake in the ischemic area higher than in the remote myocardium: 26%
  average uptake in the LV myocardium (SUV): 0.42 ± 0.10 SUV
  uptake in anteroseptal wall (segments 7 and 13) (SUV): 0.39 ± 0.11 SUV
  uptake in posterolateral wall (segment 11) (SUV): 0.36 ± 0.078 SUV
αvβ3 integrin [2]; iv
  Injured area SUVMax: 0.80 ^† SUV
  Ischemic area SUVMean: 0.61* SUV
In vivo [3]
  SUV: 1.3 ± 0.2 SUV
In vivo [4]
  tissue to tissue ratio: 1.4 ± 0.1
In vitro; pig
  fraction unbound: 0.93 ± 0.017
In vitro; rat
  fraction unbound: 0.94 ± 0.011
αvβ3 integrin [5]
  mean uptake by autoradiography, injured area: 4.6 ± 2.1 PSL/mm^2
  mean uptake by autoradiography, remote area: 1.8 ± 0.61 PSL/mm^2
  mean uptake by autoradiography, viable ischemic area: 2.2 ± 0.85 PSL/mm^2
